Assay results as given in patent US20090148905A1 (published 2009).

T1: human IL-4 (human, UniProt P05112 25-153)
T1 construct: E. coli-expressed, made and purified at GSK; also called rhIL-4; recombinant E. coli-expressed human IL-4
T1 sequence: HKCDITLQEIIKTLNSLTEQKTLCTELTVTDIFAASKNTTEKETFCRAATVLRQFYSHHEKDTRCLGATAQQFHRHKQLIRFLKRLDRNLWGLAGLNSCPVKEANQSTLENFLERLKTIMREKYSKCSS

B1: PascoL-EPKSC-474 (bispecific antibody, human IgG1, kappa)
heavy: not shown
light: DIVLTQSPSSLSASVGDRVTITCKASQSVDYDGDSYMNWYQQKPGKAPKLLIYAASNLESGIPSRFSGSGSGTDFTFTISSLQPEDIATYYCQQSNEDPPTFGQGTKVEIKRTVAAPSVFIFPPSDEQLKSGTASVVCLLNNFYPREAKVQWKVDNALQSGNSQESVTEQDSKDSTYSLSSTLTLSKADYEKHKVYACEVTHQGLSSPVTKSFNRGECEPKSCDKTHTCPPCPGSGVQLLESGGGLVQPGGSLRLSCAASGFTFAWYDMGWVRQAPGKGLEWVSSIDWHGEVTYYADSVKGRFTISRDNSKNTLYLQMNSLRAEDTAVYYCATAEDEPGYDYWGQGTLVTVSS
B2: Anti-human IL-13 monoclonal antibody (also known as 586) (antibody, human IgG1, kappa)
heavy: not shown
light: DIVMTQSPLSLPVTPGEPASISCRSSQNIVHINGNTYLEWYLQKPGQSPRLLIYKISDRFSGVPDRFSGSGSGTDFTLKISRVEADDVGIYYCFQGSHVPWTFGQGTKLEIKRTVAAPSVFIFPPSDEQLKSGTASVVCLLNNFYPREAKVQWKVDNALQSGNSQESVTEQDSKDSTYSLSSTLTLSKADYEKHKVYACEVTHQGLSSPVTKSFNRGEC
notes: humanised, human IgG1/kappa; also called Anti-human IL-13 mAb; anti-IL13 mAb

Legend:
human IL-4 = biological target: T1, human IL-4; assay: Biacore
human IL-13 = biological target: T2, human IL-13 (human, UniProt P35225 35-146)
T2 construct: E. coli-expressed, made and purified at GSK; also called rhIL-13; recombinant E. coli-expressed human IL-13

Binder | fold less potent than Pascolizumab (human IL-4) | Kd (human IL-13)
B1 | ~2 fold | 
B2 |  | 300 pM
